This note sets out measurements from patent US12503518B2, “Heparanase-neutralizing A54 monoclonal antibody” (TECHNION RESEARCH & DEVELOPMENT FOUNDATION LIMITED, priority 2020, dated 2025).

The target of assay [1] is T1, recombinant human heparanase (Homo sapiens, UniProt Q9Y251).
T1 construct: purified recombinant active heparanase (200 ng) was pre incubated with the various hybridoma supernatants; recombinant active heparanase (200 ng) was preincubated with control mouse IgG or purified mAb A54
T1 sequence (Q9Y251 158-543 limits assumed): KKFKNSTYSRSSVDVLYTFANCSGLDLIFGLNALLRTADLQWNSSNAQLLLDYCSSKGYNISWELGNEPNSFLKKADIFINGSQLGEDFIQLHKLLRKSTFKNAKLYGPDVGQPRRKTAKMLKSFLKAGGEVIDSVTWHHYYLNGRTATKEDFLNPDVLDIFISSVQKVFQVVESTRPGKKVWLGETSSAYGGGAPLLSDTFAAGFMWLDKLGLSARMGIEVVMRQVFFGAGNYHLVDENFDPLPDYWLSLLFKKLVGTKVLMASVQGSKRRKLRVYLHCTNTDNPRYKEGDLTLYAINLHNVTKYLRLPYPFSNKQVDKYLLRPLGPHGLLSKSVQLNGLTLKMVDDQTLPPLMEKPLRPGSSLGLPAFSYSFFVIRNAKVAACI
T1 sequence (Q9Y251 36-109 limits assumed): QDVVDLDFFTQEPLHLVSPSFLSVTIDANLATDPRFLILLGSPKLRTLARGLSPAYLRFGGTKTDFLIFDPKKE
As to the kind of experiment: heparanase activity assay: release of HS degradation fragments from 35S-labeled ECM. In kind it is biochemical. How it is done:
Cell lysates, heparanase activity and protein blotting. Preparation of cell lysates, protein blotting, and measurement of heparanase enzymatic activity were carried out as described (Arvatz et al. Faseb J 2011; 24(12):4969-76). For inhibition studies, highly purified recombinant heparanase (200 ng) was pre-incubated with the indicated antibody ([…]) for 30 min on ice under neutral pH conditions (pH 7.2) before being added to ^35S-labelled ECM, used as a naturally produced substrate for heparanase (Gingis-Velitski et al. 2007, ibid.).
ECM degradation assay. […] More detail about the preparation of this substrate and its use for the heparanase assay can be found in: Current Protocols in Cell Biology (Vlodavsky 2001; pp. 10.4.1-10.4.14). Briefly, sulfate [^35S] labeled ECM coating the surface of 35 mm tissue culture dishes, is incubated (4 h, 37° C., pH 6.0, 1 ml final volume) with recombinant human heparanase (200 ng/ml) in the absence and presence of the A54 mAb. The reaction mixture contains: 50 mM NaCl, 1 mM DTT, 1 mM CaCl2), and 10 mM buffer Phosphate-Citrate, pH 6.0. To evaluate the occurrence of proteoglycan degradation, the incubation medium is collected and applied for gel filtration on Sepharose 6B columns (0.9×30 cm). Fractions (0.2 ml) are eluted with PBS and counted for radioactivity. […]
In order to select the hybridoma clone that best inhibits heparanase enzymatic activity, supernatants of the various hybridomas, raised against the 65 kDa latent heparanase protein, were collected, pre-incubated with recombinant heparanase and examined for the capacity to inhibit the release of heparan sulfate (HS) degradation fragments from sulfate labeled ECM. […] The mixture was then applied onto ^35S-labeled ECM-coated dishes and heparanase activity was determined as described under “Materials and Methods” above.
Next, the ability of purified mAb A54 to inhibit heparanase enzymatic activity was examined. […] The mixture was then applied onto dishes coated with ^35S-labeled ECM, and heparanase enzymatic activity was determined as described in ‘Methods’.

Assay [2] concerns 4T1 breast carcinoma cells. As to the kind of experiment: 4T1 breast carcinoma spontaneous metastasis, orthotopic syngeneic Balb/c model. In kind it is in vivo, mouse. How it is done:
4T1 mouse breast carcinoma (spontaneous metastasis). Luciferase labeled 4T1 breast carcinoma cells (1×10^5/Balb/c mouse) are injected directly into the third mammary fat pad and treatment of mice (PBS control vs. mAb A54 500 μg/mouse, 3 times/week began 3 days after 4T1 cell inoculation. Mice were randomized into two groups of 6 mice, 4 days postinoculation (Day 0). On day 15 of the study the mammary fat pad including the primary tumor was excised on all mice while under 2% Isoflurane anaesthetic. Mice were treated with mAb A54 as described above and IVIS bioluminescent imaging is performed 12 and 18 days after mastectomy. At termination, mice are sacrificed and the number of overt macrometastases on the surface of the lungs was enumerated manually (Hammond et al., PLoS One 2012; 7(12):e52175).
IVIS imaging. Bioluminescent imaging of luciferase-expressing tumors is performed with a highly sensitive, cooled charge coupled device (CCD) camera mounted in a light-tight specimen box (IVIS; Xenogen Corp., Waltham, MA). Imaging is performed in real time, is non-invasive and provides quantitative data. Briefly, mice are injected intraperitoneally with D-luciferin substrate at 150 mg/kg, anesthetized and placed onto a warmed stage inside the light-tight camera box, with continuous exposure to isoflurane (EZAnesthesia, Palmer, PA). Light emitted from the bioluminescent cells is detected by the IVIS camera system with images quantified for tumor burden using a log-scale color range set at 5×10^4 to 1×10^7 and measurement of total photon counts per second (PPS) using Living Image software (Xenogen).
In subsequent studies, the effect of mAb A54 on cancer metastasis, the hallmark of heparanase activity, was investigated. A syngeneic breast carcinoma model was applied, which resembles the scenario in humans. Briefly, luciferase labeled 4T1 breast carcinoma cells (0.5×10^5) were orthotopically injected into the third mammary fat pad of Balb/c mice. Treatment of the mice (PBS control vs. mAb A54; 500 μg/mouse, 3 times/week) began 3 days after 4T1 cell inoculation. […] On day 15 of the study the mammary fat pad including the primary tumor was excised from all mice (under 2% Isoflurane anesthetic) and weighed. […] Mice were further treated with mAb A54 as described above and IVIS bioluminescent imaging was performed on day 35 (e.g., […]).

B1: mAb A54: heparanase-neutralizing murine monoclonal antibody, IgG1-Kappa; VH SEQ ID NO: 7, VL SEQ ID NO: 8; binds HBD-II of heparanase (antibody, listed as Mus musculus, V domains shown)
VH: QVQLQQSGAELAKPGASVRMSCKASGYTFTNYWMHWVKQRPGQGLEWIGYINPTTGYTEYNQKFKDKATLTADKSSSTAYMQLSSLTSEDSAVYYCARGGAGYDYDEDYAMDYWGQGTSVTVSS
VL: DIVLTQSPASLAVSLGQRATISCRASESVEYFGTSYMNWYQQKPGQPPKLLIYLASILESGIPARFSGSGSGTDFTLNIHPVEEEDAATYYCQQSNEDPYTFGGGTKLEIK
For B1, the “inhibition of the enzyme” value in assay [1] (0.1 μg/ml antibody, preincubated 1 h with active heparanase (200 ng), FIG. 3B) is listed as about 75%. Moreover, the “inhibition of heparanase enzymatic activity” value in assay [1] (1 μg/ml antibody, preincubated 1 h with active heparanase (200 ng), FIG. 3A) is “complete inhibition”. Besides, the “decrease in the amount of released sulfate labeled HS degradation products” value in assay [1] (hybridoma supernatant pre-incubated 2 h on ice with recombinant active heparanase (200 ng), FIG. 1) is reported as about 80%. In addition, in assay [2] (500 μg/mouse, 3 times/week, IVIS on day 12, vs PBS), the “luciferase signal generated by the primary tumors” value is given as “no differences in the luciferase signal”. Besides, the “lung metastases (IVIS signal after mastectomy)” value in assay [2] (500 μg/mouse, 3 times/week, IVIS on day 35, two out of 5 untreated mice developed lung metastases) is given as “hardly-detected signal”. Further, the “weight of excised primary tumors” value in assay [2] (500 μg/mouse, 3 times/week, excised day 15, vs untreated) was “no difference in weights”. Also, the “inhibition of lung colonization” value in assay [2] (repeated experiment with similar results) was “almost complete inhibition of lung colonization”.
